From paper PMC10516921 (Nature Communications, 2023)

Legend:
[1] = biological target: human ferroptosis suppressor protein 1, full length, recombinant from E. coli (human) (UniProt Q9BRQ8); assay: dynamic light scattering; DynaPro NanoStar, 8 °C or 20 °C, 5-10 μM protein in buffer B; also with NADH
[2] = biological target: the molecule itself; assay: SEC + other: dynamic light scattering; in solution; the sentence points to Supplementary Fig. 4 as a whole (gel filtration in panels a, b; DLS in panel c)
[3] = biological target: the molecule itself; assay: SEC; Superdex 200 Increase 10/300 GL, buffer B (20 mM Tris-HCl pH 8.0, 150 mM NaCl), 0.5 ml/min, 20 °C, molecular weight markers

| Molecule | stoichiometry N [2] | stoichiometry N [3] | also measured |
| --- | --- | --- | --- |
| human ferroptosis suppressor protein 1, full length, recombinant from E. coli (from UniProt Q9BRQ8 1-373) (enzyme) | – | – | stoichiometry N [1]: 2 |
| Gallus gallus FSP1 residues 1-318 (cFSP1^ΔCTD) (domain or fragment, Gallus gallus (chicken), UniProt E1BR24 1-318, looked up, FSP1 (AIFM2) of chicken (Gallus gallus), residues 1-318; lacks the C-terminal domain (319-373); source: E. coli BL21 (DE3), purified (Ni-Chelating Sepharose, Superdex 200 Increase)) MGSRLSVDDSVRVVIVGGGFGGIAAASQLKSWAVPFVLVDMRDAFHHNVAALRASVESGFARKTFISYSVTFGDSFRQGKVVGIDPERQQVLLSDGEELHYSHLILATGSDGPFPGKFNKVIDMESAIQTYEDMVKEIEKSERILVVGGGAAGVEMAAEIKTEYPAKEVTLIHSKIALADVELLQSVRQEVKEILLRKGVRLLLSEKVSNVENLTTNQFQKDMVVRTEKGTEVVVDMVVLCTGIKINSSAYATAFGDKLASNGALNVNKHLQLEGYDNIYAIGDCANLKEPKMAYHAELHANIVVSNIINSLTHKPLK | 2 | – | – |
| Gallus gallus ferroptosis suppressor protein 1, full length (enzyme, Gallus gallus (chicken), UniProt E1BR24 1-373, looked up, Ferroptosis suppressor protein 1 (FSP1, AIFM2) of chicken (Gallus gallus), full length, residues 1-373; gene optimized and synthesized, in pET-22b; also called cFSP1; chicken FSP1; source: E. coli BL21 (DE3), purified (Ni-Chelating Sepharose, Superdex 200 Increase)) MGSRLSVDDSVRVVIVGGGFGGIAAASQLKSWAVPFVLVDMRDAFHHNVAALRASVESGFARKTFISYSVTFGDSFRQGKVVGIDPERQQVLLSDGEELHYSHLILATGSDGPFPGKFNKVIDMESAIQTYEDMVKEIEKSERILVVGGGAAGVEMAAEIKTEYPAKEVTLIHSKIALADVELLQSVRQEVKEILLRKGVRLLLSEKVSNVENLTTNQFQKDMVVRTEKGTEVVVDMVVLCTGIKINSSAYATAFGDKLASNGALNVNKHLQLEGYDNIYAIGDCANLKEPKMAYHAELHANIVVSNIINSLTHKPLKTYQPGSLTFLLSMGKNDGVGQVKGYYVGHLLVTIAKSRDLFVSKSWKTMGQPMPS | – | 2 | – |
| human FSP1 residues 1-316 (hFSP1^ΔCTD), recombinant from E. coli (domain or fragment, UniProt Q9BRQ8 1-316, looked up, FSP1 (AIFM2), human, residues 1-316; lacks the C-terminal domain; source: E. coli BL21 (DE3), purified (Ni-Chelating Sepharose, Ulp1 cleavage, Superdex 200 Increase); not shown: His6, N-terminal, cleaved; SUMO, N-terminal, cleaved) MGSQVSVESGALHVVIVGGGFGGIAAASQLQALNVPFMLVDMKDSFHHNVAALRASVETGFAKKTFISYSVTFKDNFRQGLVVGIDLKNQMVLLQGGEALPFSHLILATGSTGPFPGKFNEVSSQQAAIQAYEDMVRQVQRSRFIVVVGGGSAGVEMAAEIKTEYPEKEVTLIHSQVALADKELLPSVRQEVKEILLRKGVQLLLSERVSNLEELPLNEYREYIKVQTDKGTEVATNLVILCTGIKINSSAYRKAFESRLASSGALRVNEHLQVEGHSNVYAIGDCADVRTPKMAYLAGLHANIAVANIVNSVKQR | 2 | – | – |
| Gallus gallus FSP1 residues 12-373 (cFSP1^ΔN), not methylated (domain or fragment, Gallus gallus (chicken), UniProt E1BR24 12-373, looked up, FSP1 (AIFM2) of chicken (Gallus gallus), residues 12-373; lacks the N-terminal myristoylation motif (residues 1-11); Same limits as the crystallized, methylated protein; also called native cFSP1^ΔN; source: E. coli BL21 (DE3), purified (Ni-Chelating Sepharose, Superdex 200 Increase)) RVVIVGGGFGGIAAASQLKSWAVPFVLVDMRDAFHHNVAALRASVESGFARKTFISYSVTFGDSFRQGKVVGIDPERQQVLLSDGEELHYSHLILATGSDGPFPGKFNKVIDMESAIQTYEDMVKEIEKSERILVVGGGAAGVEMAAEIKTEYPAKEVTLIHSKIALADVELLQSVRQEVKEILLRKGVRLLLSEKVSNVENLTTNQFQKDMVVRTEKGTEVVVDMVVLCTGIKINSSAYATAFGDKLASNGALNVNKHLQLEGYDNIYAIGDCANLKEPKMAYHAELHANIVVSNIINSLTHKPLKTYQPGSLTFLLSMGKNDGVGQVKGYYVGHLLVTIAKSRDLFVSKSWKTMGQPMPS | – | 2 | – |
| Gallus gallus FSP1 residues 12-373 (cFSP1^ΔN), reductively methylated (domain or fragment, Gallus gallus (chicken), UniProt E1BR24 12-373, looked up, surface lysine residues modified by reductive methylation (formaldehyde and dimethylamine-borane complex), FSP1 (AIFM2) of chicken (Gallus gallus), residues 12-373; lacks the N-terminal myristoylation motif (residues 1-11); Crystallized substrate-free and with CoQ1; A selenomethionine derivative was used for phasing; also called methylated cFSP1^ΔN; source: E. coli BL21 (DE3), purified (Ni-chelating resin, HiTrap Heparin, reductive methylation, Superdex 200 Increase)) RVVIVGGGFGGIAAASQLKSWAVPFVLVDMRDAFHHNVAALRASVESGFARKTFISYSVTFGDSFRQGKVVGIDPERQQVLLSDGEELHYSHLILATGSDGPFPGKFNKVIDMESAIQTYEDMVKEIEKSERILVVGGGAAGVEMAAEIKTEYPAKEVTLIHSKIALADVELLQSVRQEVKEILLRKGVRLLLSEKVSNVENLTTNQFQKDMVVRTEKGTEVVVDMVVLCTGIKINSSAYATAFGDKLASNGALNVNKHLQLEGYDNIYAIGDCANLKEPKMAYHAELHANIVVSNIINSLTHKPLKTYQPGSLTFLLSMGKNDGVGQVKGYYVGHLLVTIAKSRDLFVSKSWKTMGQPMPS | – | 2 | – |
